Columns and labels:
40 kDa protease = target: T1, 40 kDa protease (Homo sapiens, UniProt Q96IY4, A169T/A260V/E345D/I347T/R257S); experiment: Inhibition of natural brain APP degradation by the 40 kDa protease (Western blot, anti Aβ 1/14 or anti APP-CT antibody); assay type: biochemical; conditions: 37° C., 3 h
T1 construct: The 40 kDa proteolytic activity from fraction 19 was trapped in the column and recovered by elution; from tissue; host or cells: human hippocampus (autopsy brain)
T1 sequence (Q96IY4 23-360 isoform Q96IY4-2 A169T/R220S/A223V/E308D/I310T limits assumed): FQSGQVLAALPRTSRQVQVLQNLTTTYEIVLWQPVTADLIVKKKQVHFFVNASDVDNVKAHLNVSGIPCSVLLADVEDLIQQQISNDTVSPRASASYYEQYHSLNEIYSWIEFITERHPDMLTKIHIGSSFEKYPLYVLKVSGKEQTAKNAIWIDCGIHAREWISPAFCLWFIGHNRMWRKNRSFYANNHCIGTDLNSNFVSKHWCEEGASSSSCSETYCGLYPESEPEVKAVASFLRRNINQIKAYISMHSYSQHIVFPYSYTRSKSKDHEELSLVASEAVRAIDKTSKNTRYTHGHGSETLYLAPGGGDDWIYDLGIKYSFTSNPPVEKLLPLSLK
Protocol: After separation of proteins by SDS-PAGE, proteins on the gel was blotted onto a Hybond C nitrocellulose membrane (Amersham Pharmacia, UK), after which non-specific binding was blocked by immersing the membrane in 5% bovine serum albumin for 1 h in Tris-buffered saline: 100 mM Tris-HCl (pH 7.5), 140 mM NaCl and 0.1% Tween 20. The membrane next was washed for 45 min with three changes of the above buffer then incubated at 4° C. for 16 h with the first antibody (anti Aβ 1/14 antibody) appropriately diluted with Tris-buffered saline. After again washing it as above, the membrane was incubated at room temperature for 1 h with a horseradish peroxidase-labeled anti rabbit second antibody diluted 1:2000. After the washing, signals were detected on X-ray film using an ECL chemiluminescence detection system (Amersham Pharmacia, UK).

[1] = Stability of proteolytic activity of native-PAGE fraction; assay type: physicochemical
Text: Of the 61 fractions analyzed, fraction 19 with a molecular mass of about 40 kDa and fraction 11 with a molecular mass of about 30 kDa had similar proteolytic activities. […] Fraction 19 with the 40 kDa molecular mass with proteolytic activity therefore was further purified.

synthetic Aβ 1-42 = experiment: Carboxypeptidase digestion of synthetic Aβ 1-42 (Western blot); assay type: biochemical; conditions: 0.01 pM to 0.2 pM enzyme, 0.1 pM substrate, 37° C., 16 hours
Text: (§1) In Western blot analysis, low-molecular weight peptides (in which several amino acids have shifted) can be confirmed by anti-Aβ-N-terminus antibody regarding the Aβ 1-40 substrate, however this cannot be confirmed by the anti-Aβ 40 fragment antibody. On the other hand, low-molecular weight peptides (in which several amino acids have shifted) can be confirmed by anti-Aβ-N-terminus antibody regarding the Aβ 1-42 substrate, however this cannot be confirmed by the anti-Aβ 42 fragment antibody.

natural brain APP = experiment: Proteolysis of natural brain APP by the isolated 40 kDa protease (Western blot); assay type: biochemical, human; conditions: 0.1 pmol APP, 0.005 to 0.1 pmol protease, 37° C., 3 h, 1 mM Zn2+; generates 5.5 kDa fragment
Protocol: In the proteolytic analysis of the fractions for natural brain APP, approximately 0.1 pmol of natural brain APP prepared from human hippocampus was incubated at 37° C. for 3 h with each fraction (approximately 0.05 pmol) in the presence of 1 mM Zn^2+. To obtain proteolytic activities of interest, each reaction mixture was loaded in parallel wells for SDS-PAGE then subjected to Western blot analysis using anti Aβ 1/14 antibody (Calbiochem) as follows.
After separation of proteins by SDS-PAGE, proteins on the gel was blotted onto a Hybond C nitrocellulose membrane (Amersham Pharmacia, UK), after which non-specific binding was blocked by immersing the membrane in 5% bovine serum albumin for 1 h in Tris-buffered saline: 100 mM Tris-HCl (pH 7.5), 140 mM NaCl and 0.1% Tween 20. The membrane next was washed for 45 min with three changes of the above buffer then incubated at 4° C. for 16 h with the first antibody (anti Aβ 1/14 antibody) appropriately diluted with Tris-buffered saline. […] After the washing, signals were detected on X-ray film using an ECL chemiluminescence detection system (Amersham Pharmacia, UK).
The brain APP substrate (approximately 0.1 pmol) was treated with the 40 kDa protease (0.005 to 0.1 pmol) at 37° C. for 3 h in the presence of 1 mM Zn^2+ to analyze the isolated 40 kDa protease. The reaction product analyzed by Western blotting with anti Aβ 1/14 antibody (FIG. 2). […]

synthetic Aβ 1-40 = experiment: Carboxypeptidase digestion of synthetic Aβ 1-40 (Western blot); assay type: biochemical; conditions: 0.01 pM to 0.2 pM enzyme, 0.1 pM substrate, 37° C., 16 hours
Text: as §1

Molecule: chondroitinase ABC
- inhibition of brain APP degradation reaction (40 kDa protease; APP pretreated with 0.5 pmol chondroitinase ABC, FIG. 2 lane 3): almost completely inhibited

Molecule: potato carboxypeptidase inhibitor: potato carboxypeptidase inhibitor (BioPur, Switzerland) (QQHADPICNKPCKTHDDCSGAWFCQACWNSARTCGPYVG)
- inhibition of brain APP degradation reaction (40 kDa protease; 1 mM potato carboxypeptidase inhibitor, 1 mM Zn2+, FIG. 2 lane 4): completely inhibited

B1: fraction 11: native-PAGE fraction of about 30 kDa with proteolytic activity; mature form of HBCPB (protein)
chain: ASASYYEQYHSLNEIYSWIEFITERHPDMLTKIHIGSSFEKYPLYVLKVSGKEQTAKNAIWIDCGIHAREWISPAFCLWFIGHNRMWRKNRSFYANNHCIGTDLNRNFASKHWCEEGASSSSCSETYCGLYPESEPEVKAVASFLRRNINQIKAYISMHSYSQHIVFPYSYTRSKSKDHEELSLVASEAVRAIEKTSKNTRYTHGHGSETLYLAPGGGDDWIYDLGIKYSFTSNPPVEKLLPLSLK
- activity after long-term storage ([1]; 2 w at −20° C.): lost its activity
- time to loss of proteolytic activity ([1]; room temperature): ≤ 30 min

B2: 40 kDa protein: 40 kDa protease purified from human hippocampal homogenate; brain carboxypeptidase B (SEQ ID NO: 2) (protein, listed as Homo sapiens)
chain: MKLCSLAVLVPIVLFCEQHVFAFQSGQVLAALPRTSRQVQVLQNLTTTYEIVLWQPVTADLIVKKKQVHFFVNASDVDNVKAHLNVSGIPCSVLLADVEDLIQQQISNDTVSPRASASYYEQYHSLNEIYSWIEFITERHPDMLTKIHIGSSFEKYPLYVLKVSGKEQTAKNAIWIDCGIHAREWISPAFCLWFIGHNRMWRKNRSFYANNHCIGTDLNSNFVSKHWCEEGASSSSCSETYCGLYPESEPEVKAVASFLRRNINQIKAYISMHSYSQHIVFPYSYTRSKSKDHEELSLVASEAVRAIDKTSKNTRYTHGHGSETLYLAPGGGDDWIYDLGIKYSFTSNPPVEKLLPLSLK
- formation of low-molecular weight peptides from Aβ 1-42 (synthetic Aβ 1-42): low-molecular weight peptides formed in a dose-dependent manner
- degradation of natural brain APP (natural brain APP): degraded natural brain APP
- formation of low-molecular weight peptides from Aβ 1-40 (synthetic Aβ 1-40): low-molecular weight peptides formed in a dose-dependent manner
